B1: WWC2 LC8 binding motif peptide, start 962 (peptide)
chain: PTLVDKETNTD
modifications: core 962-969 printed; 11-mer assumed to add 3 N-terminal residues, as in the S1 Table motif format; termini chemistry not stated
B2: AMOTL1 LC8 binding motif peptide, start 873 (peptide)
chain: TGSKDSSTQTD
modifications: core 873-880 printed; 11-mer assumed to add 3 N-terminal residues, as in the S1 Table motif format; termini chemistry not stated
B3: WWC1 (KIBRA) LC8 binding motif peptide, start 278 (peptide)
chain: KQYLDVSSQTD
modifications: core 278-285 printed; S1 Table prints the 11-mer KQYLDVSSQTD starting at 275; termini chemistry not stated
B4: WWC2 LC8 binding motif peptide, start 282 (peptide)
chain: RQTLDAGSQTS
modifications: core 282-289 printed; 11-mer assumed to add 3 N-terminal residues, as in the S1 Table motif format; termini chemistry not stated
B5: AMOT LC8 binding motif peptide, start 860 (peptide)
chain: TGSRDCSTQTE
modifications: core 860-867 printed; 11-mer assumed to add 3 N-terminal residues, as in the S1 Table motif format; termini chemistry not stated
B6: WWC3 LC8 binding motif peptide, start 867 (peptide)
chain: PLKVDKETNTE
modifications: printed start 867 appears to be in older 1092-aa numbering (current entry +124, so core 991-998); 11-mer assumed to add 3 N-terminal residues, as in the S1 Table motif format
B7: WWC3 LC8 binding motif peptide, start 208 (peptide)
chain: QQFCDAGSQTD
modifications: printed start 208 appears to be in older 1092-aa numbering (current entry +124, so core 332-339); 11-mer assumed to add 3 N-terminal residues, as in the S1 Table motif format
B8: WWC1 (KIBRA) LC8 binding motif peptide, start 887 (peptide)
chain: ALKVDKETNTE
modifications: core 887-894 printed; 11-mer assumed to add 3 N-terminal residues, as in the S1 Table motif format; termini chemistry not stated
B9: AMOTL2 LC8 binding motif peptide, start 724 (peptide)
chain: HGSRDGSTQTE
modifications: core 724-731 printed; 11-mer assumed to add 3 N-terminal residues, as in the S1 Table motif format; termini chemistry not stated

Target: LC8 dynein light chain (DYNLL2), full-length, His6-tagged (human (by the printed accession Q96FJ2), UniProt Q96FJ2 1-89)
Sequence (Q96FJ2 whole entry, one chain of several): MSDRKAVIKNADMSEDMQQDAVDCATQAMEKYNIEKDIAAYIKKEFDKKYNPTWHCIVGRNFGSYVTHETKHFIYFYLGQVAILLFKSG
Experiment: SPR; His6-LC8 immobilised on Ni2+-NTA HTG sensor chip (ProteOn XPR36) at three densities (1200, 900, 600 RU); peptides injected at five concentrations, 60 ul/min; 20 mM Hepes, 150 mM NaCl, 0.05% Tween-20, 0.1 mM TCEP, 50 uM EDTA, pH 7.5; 1:1 Langmuir global fit; apparent Kd, mean of kinetic and equilibrium analysis
Conditions: both partners purified

Row | Kd [µM] | Binder
1 | 17.6 | B1
2 | 1.55 | B2
3 | 0.45 | B3
4 | 32.7 | B4
5 | 1.2 | B5
6 | 3.5 | B6
7 | 5.34 | B7
8 | 4 | B8
9 | 1.98 | B9
